# B1: pro-caspase-9 inactive mutant (Cys287/Ala) (enzyme)
# chain: MDEADRRLLRRCRLRLVEELQVDQLWDALLSSELFRPHMIEDIQRAGSGSRRDQARQLIIDLETRGSQALPLFISCLEDTGQDMLASFLRTNRQAAKLSKPTLENLTPVVLRPEIRKPEVLRPETPRPVDIGSGGFGDVGALESLRGNADLAYILSMEPCGHCLIINNVNFCRESGLRTRTGSNIDCEKLRRRFSSPHFMVEVKGDLTAKKMVLALLELAQQDHGALDCCVVVILSHGCQASHLQFPGAVYGTDGCPVSVEKIVNIFNGTSCPSLGGKPKLFFIQAAGGEQKDHGFEVASTSPEDESPGSNPEPDATPFQEGLRTFDQLDAISSLPTPSDIFVSYSTFPGFVSWRDPKSGSWYVETLDDIFEQWAHSEDLQSLLLRVANAVSVKGIYKQMPGCFNFLRKKLFFKTS
# B2: TUCAN fragment lacking the CARD (residues 1-337) (other)
# chain: MMRQRQSHYCSVLFLSVNYLGGTFPGDICSEENQIVSSYASKVCFEIEEDYKNRQFLGPEGNVDVELIDKSTNRYSVWFPTAGWYLWSATGLGFLVRDEVTVTIAFGSWSQHLALDLQHHEQWLVGGPLFDVTAEPEEAVAEIHLPHFISLQGEVDVSWFLVAHFKNEGMVLEHPARVEPFYAVLESPSFSLMGILLRIASGTRLSIPITSNTLIYYHPHPEDIKFHLYLVPSDALLTKAIDDEEDRFHGVRLQTSPPMEPLNFGSSYIVSNSANLKVMPKELKLSYRSPGEIQHFSKFYAGQMKEPIQLEITEKRHGTLVWDTEVKPVDLQLVAAS
# notes: also called ΔCARD; ΔCARD fragment of TUCAN
# B3: pro-Caspase-1 (enzyme, UniProt P29466 1-404, looked up)
# chain: MADKVLKEKRKLFIRSMGEGTINGLLDELLQTRVLNKEEMEKVKRENATVMDKTRALIDSVIPKGAQACQICITYICEEDSYLAGTLGLSADQTSGNYLNMQDSQGVLSSFPAPQAVQDNPAMPTSSGSEGNVKLCSLEEAQRIWKQKSAEIYPIMDKSSRTRLALIICNEEFDSIPRRTGAEVDITGMTMLLQNLGYSVDVKKNLTASDMTTELEAFAHRPEHKTSDSTFLVFMSHGIREGICGKKHSEQVPDILQLNAIFNMLNTKNCPSLKDKPKVIIIQACRGDSPGVVWFKDSVGVSGNLSLPTTEEFEDDAIKKAHIEKDFIAFCSSTPDNVSWRHPTMGSVFIGRLIEHMQEYACSCDVEEIFRKVRFSFEQPDGRAQMPTTERVTLTRCFYLFPGH
# B4: Bcl10 (CIPER; huE10) (other, UniProt O95999 1-233, looked up)
# chain: MEPTAPSLTEEDLTEVKKDALENLRVYLCEKIIAERHFDHLRAKKILSREDTEEISCRTSSRKRAGKLLDYLQENPKGLDTLVESIRREKTQNFLIQKITDEVLKLRNIKLEHLKGLKCSSCEPFPDGATNNLSRSNSDESNFSEKLRASTVMYHPEGESSTTPFFSTNSSLNLPVLEVGRTENTIFSSTTLPRPGDPGAPPLPPDLQLEEEGTCANSSEMFLPLRSRTVSRQ
# Legend:
# [1] = target: B2; experiment: co-immunoprecipitation, transfected cells, SDS-PAGE/immunoblot
# [2] = target: T1, TUCAN (Tumor Up-regulated CARD-containing Antagonist of Caspase Nine), full-length (Homo sapiens (Human), UniProt Q9Y2G2 131-537); experiment: co-immunoprecipitation with HA- and Myc-tagged proteins
# T1 construct: Full-length TUCAN expressed by transient transfection in HEK293T cells; also called full-length TUCAN; CARD-X
# T1 sequence: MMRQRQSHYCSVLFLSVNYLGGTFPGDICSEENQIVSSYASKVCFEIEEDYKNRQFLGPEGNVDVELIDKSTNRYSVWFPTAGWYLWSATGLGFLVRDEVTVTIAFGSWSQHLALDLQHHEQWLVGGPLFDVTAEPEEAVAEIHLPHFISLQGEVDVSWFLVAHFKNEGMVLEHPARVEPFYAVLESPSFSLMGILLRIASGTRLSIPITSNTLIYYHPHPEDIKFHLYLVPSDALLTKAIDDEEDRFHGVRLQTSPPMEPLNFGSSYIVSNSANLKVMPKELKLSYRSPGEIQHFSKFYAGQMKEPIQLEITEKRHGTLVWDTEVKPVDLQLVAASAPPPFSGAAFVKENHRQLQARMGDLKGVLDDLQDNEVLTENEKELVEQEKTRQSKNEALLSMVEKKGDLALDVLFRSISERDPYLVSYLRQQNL
# [3] = target: T1, TUCAN (Tumor Up-regulated …); experiment: co-immunoprecipitation, transfected HEK293T cells, SDS-PAGE/immunoblot
binder,measurement,setting,value
B1,binding result,[1],no binding
B2,binding result,[2],no binding
B3,binding result,[3],no binding
B4,binding result,[3],no binding

# Reference: patent publication US20030165887A1 (BURNHAM INSTITUTE, published 2003)
